Like-named read-outs stand apart in the source and are kept apart here.
What was measured:
Assay in all cases: SPR Biacore T200; binder captured on protein A chip, target as analyte
human CTLA4 (hCTLA4-His) = human CTLA4 (hCTLA4-His) (human, UniProt P16410 36-161, limits assumed)
Method: (§1) Binding affinities of the fusion proteins against human CTLA4 (hCTLA4-His) or human PD-L1 (hPDL1) were measured by surface plasmon resonance (SPR) using Biacore™ T200 biosensor equipped with pre-immobilized protein A sensor chips. A CTLA4 antibody CT4-4G12-IgG1 (CT4) was used as a control. ATOR1015-CD86 (CD86) and KN035-IgG1 (with D265A mutation in heavy chain constant domain) were also used as controls.

[1] = target: T1, 6×Histidine-tagged human PD-L1 protein (hPDL1-His) (human, UniProt Q9NZQ7 19-238)
T1 construct: also called hPL1-His; His-tagged human PD-L1
T1 sequence (Q9NZQ7 19-238 limits assumed): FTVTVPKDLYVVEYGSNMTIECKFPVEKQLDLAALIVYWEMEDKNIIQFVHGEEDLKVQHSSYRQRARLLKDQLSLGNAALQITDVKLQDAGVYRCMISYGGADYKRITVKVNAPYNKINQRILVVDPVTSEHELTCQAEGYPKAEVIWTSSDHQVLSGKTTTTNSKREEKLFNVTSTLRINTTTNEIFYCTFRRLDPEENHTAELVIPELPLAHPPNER
Method: as §1

[2] = target: T1, 6×Histidine-tagged human PD-L1 protein …; remark: listed apart in the source

human CTLA4 (hCTLA4-His), sequence (P16410 36-161 limits assumed): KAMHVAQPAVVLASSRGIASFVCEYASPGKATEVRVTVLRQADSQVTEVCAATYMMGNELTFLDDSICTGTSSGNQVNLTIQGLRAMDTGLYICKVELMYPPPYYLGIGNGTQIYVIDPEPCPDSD

Row | Binder | Kd (human CTLA4 (hCTLA4-His)) [nM] | koff (human CTLA4 (hCTLA4-His)) [s⁻¹] | kon (human CTLA4 (hCTLA4-His)) [M⁻¹ s⁻¹] | Kd [1] [nM] | koff [1] [s⁻¹] | kon [1] [M⁻¹ s⁻¹] | other results
1 | ATOR1015-CD86 (ligand, Used as control captured on a protein A chip) APLKIQAYFNETADLPCQFANSQNLSLSELVVFWQDQENLVLNEVYLGKERFDSVDSKYMGRTSFDSDSWTLRLHNLQIKDKGRYQCIIHHKKPTGMINIHQMNSELSVLA | 1.02 | 0.000297 | 291000 |  |  |  | 
2 | PDL1-CD86-3A-IgG1 (antibody, IgG1) heavy: EVQLLESGGGLVQPGGSLRLSCAASGFTFSSYIMMWVRQAPGKGLEWVSSIYPSGGITFYADTVKGRFTISRDNSKNTLYLQMNSLRAEDTAVYYCARIKLGTVTTVDYWGQGTLVTVSSASTKGPSVFPLAPSSKSTSGGTAALGCLVKDYFPEPVTVSWNSGALTSGVHTFPAVLQSSGLYSLSSVVTVPSSSLGTQTYICNVNHKPSNTKVDKKVEPKSCDKTHTCPPCPAPELLGGPSVFLFPPKPKDTLMISRTPEVTCVVVDVSHEDPEVKFNWYVDGVEVHNAKTKPREEQYNSTYRVVSVLTVLHQDWLNGKEYKCKVSNKALPAPIEKTISKAKGQPREPQVYTLPPSRDEGGGGSGGGGSAPLKIQAYFNETADLPCQFANSQNLSLSELVVFWQDQENLVLNEVYLGKERFDSVDSKYMGRTSFDSDSWTLRLHNLQIKDKGRYQCIIHHKKPTGMINIHQMNSELSVLAGGGGSGGGGSVSLTCLVKGFYPSDIAVEWESNGQPENNYKTTPPVLDSDGSFFLYSKLTVDKSRWQQGNVFSCSVMHEALHNHYTQKSLSLSPGK light: QSALTQPASVSGSPGQSITISCTGTSSDVGGYNYVSWYQQHPGKAPKLMIYDVSNRPSGVSNRFSGSKSGNTASLTISGLQAEDEADYYCSSYTSSSTRVFGTGTKVTVLGQPKANPTVTLFPPSSEELQANKATLVCLISDFYPGAVTVAWKADGSPVKAGVETTKPSKQSNNKYAASSYLSLTPEQWKSHRSYSCQVTHEGSTVEKTVAPTECS | 1.74 | 0.000693 | 397000 |  |  |  | 
3 | PDL1-CD86-3A-IgG4 (antibody) chain 1: EVQLLESGGGLVQPGGSLRLSCAASGFTFSSYIMMWVRQAPGKGLEWVSSIYPSGGITFYADTVKGRFTISRDNSKNTLYLQMNSLRAEDTAVYYCARIKLGTVTTVDYWGQGTLVTVSSASTKGPSVFPLAPCSRSTSESTAALGCLVKDYFPEPVTVSWNSGALTSGVHTFPAVLQSSGLYSLSSVVTVPSSSLGTKTYTCNVDHKPSNTKVDKRVESKYGPPCPSCPAPEFLGGPSVFLFPPKPKDTLMISRTPEVTCVVVDVSQEDPEVQFNWYVDGVEVHNAKTKPREEQFNSTYRVVSVLTVLHQDWLNGKEYKCKVSNKGLPSSIEKTISKAKGQPREPQVYTLPPSQEEGGGGSGGGGSAPLKIQAYFNETADLPCQFANSQNLSLSELVVFWQDQENLVLNEVYLGKERFDSVDSKYMGRTSFDSDSWTLRLHNLQIKDKGRYQCIIHHKKPTGMINIHQMNSELSVLAGGGGSGGGGSVSLTCLVKGFYPSDIAVEWESNGQPENNYKTTPPVLDSDGSFFLYSRLTVDKSRWQEGNVFSCSVMHEALHNHYTQKSLSLSLGK chain 2: QSALTQPASVSGSPGQSITISCTGTSSDVGGYNYVSWYQQHPGKAPKLMIYDVSNRPSGVSNRFSGSKSGNTASLTISGLQAEDEADYYCSSYTSSSTRVFGTGTKVTVLGQPKANPTVTLFPPSSEELQANKATLVCLISDFYPGAVTVAWKADGSPVKAGVETTKPSKQSNNKYAASSYLSLTPEQWKSHRSYSCQVTHEGSTVEKTVAPTECS | 1.88 | 0.000684 | 364000 |  |  |  | 
4 | CT4-KN035-3A-knob-IgG1 (bispecific antibody, IgG1 with knobs-in-holes; KN035 on the knob chain only) heavy 1: EVQLVESGGGLVQPGGSLRLSCAASGFTFSSYTMSWVRQAPGKGLEWVATISRGGGYTSYPDSVKGRFTISRDNSKNTLYLQMNSLRAEDTAVYYCAREDYGSSYVHWFAYWGQGTLVTVSAASTKGPSVFPLAPSSKSTSGGTAALGCLVKDYFPEPVTVSWNSGALTSGVHTFPAVLQSSGLYSLSSVVTVPSSSLGTQTYICNVNHKPSNTKVDKKVEPKSCDKTHTCPPCPAPELLGGPSVFLFPPKPKDTLMISRTPEVTCVVVDVSHEDPEVKFNWYVDGVEVHNAKTKPREEQYNSTYRVVSVLTVLHQDWLNGKEYKCKVSNKALPAPIEKTISKAKGQPREPQVCTLPPSREEGGGGSGGGGSQVQLVESGGGLVQPGGSLRLSCAASGFTFSRRCMAWFRQAPGKERERVAKLLTTSGSTYLADSVKGRFTISRDNSKNTVYLQMNSLRAEDTAVYYCAADSFEDPTCTLVTSSGAFQYWGQGTLVTVSSGGGGSGGGGSVSLWCLVKGFYPSDIAVEWESNGQPENNYKTTPPVLDSDGSFFLYSKLTVDKSRWQQGNVFSCSVMHEALHNHYTQKSLSLSPGK heavy 2: not shown light: DIQMTQSPSFLSASVGDRVTITCRAGENIYSYLAWYQQKPGKAPKLLIYNARTLAEGVPSRFSGSGSGTEFTLTISSLQPEDFATYYCQHHYGSPRTFGGGTKLEIKRTVAAPSVFIFPPSDEQLKSGTASVVCLLNNFYPREAKVQWKVDNALQSGNSQESVTEQDSKDSTYSLSSTLTLSKADYEKHKVYACEVTHQGLSSPVTKSFNRGEC |  |  |  | 11.7 | 0.00231 | 197000 | 
5 | CT4-KN035-3A-hole-IgG1 (bispecific antibody, IgG1 with knobs-in-holes; KN035 on the hole chain only; also called CT4-KN035-3A-kole) heavy 1: EVQLVESGGGLVQPGGSLRLSCAASGFTFSSYTMSWVRQAPGKGLEWVATISRGGGYTSYPDSVKGRFTISRDNSKNTLYLQMNSLRAEDTAVYYCAREDYGSSYVHWFAYWGQGTLVTVSAASTKGPSVFPLAPSSKSTSGGTAALGCLVKDYFPEPVTVSWNSGALTSGVHTFPAVLQSSGLYSLSSVVTVPSSSLGTQTYICNVNHKPSNTKVDKKVEPKSCDKTHTCPPCPAPELLGGPSVFLFPPKPKDTLMISRTPEVTCVVVDVSHEDPEVKFNWYVDGVEVHNAKTKPREEQYNSTYRVVSVLTVLHQDWLNGKEYKCKVSNKALPAPIEKTISKAKGQPREPQVYTLPPSRCEGGGGSGGGGSQVQLVESGGGLVQPGGSLRLSCAASGFTFSRRCMAWFRQAPGKERERVAKLLTTSGSTYLADSVKGRFTISRDNSKNTVYLQMNSLRAEDTAVYYCAADSFEDPTCTLVTSSGAFQYWGQGTLVTVSSGGGGSGGGGSVSLSCAVKGFYPSDIAVEWESNGQPENNYKTTPPVLDSDGSFFLVSKLTVDKSRWQQGNVFSCSVMHEALHNHYTQKSLSLSPGK heavy 2: not shown light: DIQMTQSPSFLSASVGDRVTITCRAGENIYSYLAWYQQKPGKAPKLLIYNARTLAEGVPSRFSGSGSGTEFTLTISSLQPEDFATYYCQHHYGSPRTFGGGTKLEIKRTVAAPSVFIFPPSDEQLKSGTASVVCLLNNFYPREAKVQWKVDNALQSGNSQESVTEQDSKDSTYSLSSTLTLSKADYEKHKVYACEVTHQGLSSPVTKSFNRGEC |  |  |  | 20.4 | 0.0019 | 92700 | 
6 | 3F2-hIL7-3A (antibody, IgG1) heavy: QVQLQESGPGLVKPSETLSLTCTVSGYSITSGYNWHWIRQFPGNGLEWMGYIHHSSITNYNPSLKSRITISRDTSKNQFSLKLSSVTAADTATYYCAREGYDYDWFAYWGQGTLVTVSSASTKGPSVFPLAPSSKSTSGGTAALGCLVKDYFPEPVTVSWNSGALTSGVHTFPAVLQSSGLYSLSSVVTVPSSSLGTQTYICNVNHKPSNTKVDKKVEPKSCDKTHTCPPCPAPELLGGPSVFLFPPKPKDTLMISRTPEVTCVVVDVSHEDPEVKFNWYVDGVEVHNAKTKPREEQYNSTYRVVSVLTVLHQDWLNGKEYKCKVSNKALPAPIEKTISKAKGQPREPQVYTLPPSRDEGGGGSGGGGSDCDIEGKDGKQYESVLMVSIDQLLDSMKEIGSNCLNNEFNFFKRHICDANKEGMFLFRAARKLRQFLKMNSTGDFDLHLLKVSEGTTILLNCTGQVKGRKPAALGEAQPTKSLEENKSLKEQKKLNDLCFLKRLLQEIKTCWNKILMGTKEHGGGGSGGGGSVSLTCLVKGFYPSDIAVEWESNGQPENNYKTTPPVLDSDGSFFLYSKLTVDKSRWQQGNVFSCSVMHEALHNHYTQKSLSLSPGK light: DIVLTQSPDFQSVTPKEKVTITCRASQSISNNLHWYQQKPDESPKLLIKYASQSISGIPSRFSGSGSGTDFTLTINSVEAEDFAMYFCQQSKSWPFTFGQGTRLEIKRTVAAPSVFIFPPSDEQLKSGTASVVCLLNNFYPREAKVQWKVDNALQSGNSQESVTEQDSKDSTYSLSSTLTLSKADYEKHKVYACEVTHQGLSSPVTKSFNRGEC |  |  |  |  |  |  | Kd [2]: 0.493 nM; koff [2]: 0.000879 s⁻¹; kon [2]: 1.78e+06 M⁻¹ s⁻¹
7 | PD1-KN035-3A-IgG1 (bispecific antibody, IgG1) heavy: EVQLVESGGGLVQPGGSLRLSCAASGFTFSSYSMSWVRQAPGKRLEWVAHISSGGSSTYYPDTVKGRFTISRDNSKNTLYLQMNSLRAEDTAMYYCTRQFYYGSSFWYFDVWGAGTTVTVSSASTKGPSVFPLAPSSKSTSGGTAALGCLVKDYFPEPVTVSWNSGALTSGVHTFPAVLQSSGLYSLSSVVTVPSSSLGTQTYICNVNHKPSNTKVDKKVEPKSCDKTHTCPPCPAPELLGGPSVFLFPPKPKDTLMISRTPEVTCVVVDVSHEDPEVKFNWYVDGVEVHNAKTKPREEQYNSTYRVVSVLTVLHQDWLNGKEYKCKVSNKALPAPIEKTISKAKGQPREPQVYTLPPSREEGGGGSGGGGSQVQLVESGGGLVQPGGSLRLSCAASGFTFSRRCMAWFRQAPGKERERVAKLLTTSGSTYLADSVKGRFTISRDNSKNTVYLQMNSLRAEDTAVYYCAADSFEDPTCTLVTSSGAFQYWGQGTLVTVSSGGGGSGGGGSVSLTCLVKGFYPSDIAVEWESNGQPENNYKTTPPVLDSDGSFFLYSKLTVDKSRWQQGNVFSCSVMHEALHNHYTQKSLSLSPGK light: DNVLTQSPATLSVSPGERATLSCKASQSVDFDGDSYMNWYQQKPGQPPRLLIYAASNLESGIPARFSGSGSGTDFTLTISSVEPEDFATYYCQQSNEDPPTFGGGTKVEIKRTVAAPSVFIFPPSDEQLKSGTASVVCLLNNFYPREAKVQWKVDNALQSGNSQESVTEQDSKDSTYSLSSTLTLSKADYEKHKVYACEVTHQGLSSPVTKSFNRGEC |  |  |  | 14.1 | 0.00687 | 487000 | 
8 | KN035-IgG1 (D265A) (Fc fusion, not shown: a dimerising Fc or GST, Control; with D265A mutation in heavy chain constant domain; also called KN035-PDL1) VHH: QVQLVESGGGLVQPGGSLRLSCAASGFTFSRRCMAWFRQAPGKERERVAKLLTTSGSTYLADSVKGRFTISRDNSKNTVYLQMNSLRAEDTAVYYCAADSFEDPTCTLVTSSGAFQYWGQGTLVTVSS |  |  |  | 11.5 | 0.0204 | 1.78e+06 | 
